Earlier results in article PMC3867676.

Columns and labels:
TRAIL (Homo sapiens) = TRAIL (Homo sapiens) (UniProt P50591)
RANKL (Homo sapiens) = RANKL (Homo sapiens) (UniProt O14788)
UniProt O14788, sequence (O14788 140-317): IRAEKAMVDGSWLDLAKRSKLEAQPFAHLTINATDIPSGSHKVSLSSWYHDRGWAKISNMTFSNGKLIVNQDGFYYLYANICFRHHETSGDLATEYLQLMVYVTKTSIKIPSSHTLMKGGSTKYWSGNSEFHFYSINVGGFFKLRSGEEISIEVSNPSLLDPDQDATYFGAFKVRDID

UniProt P50591, sequence (P50591 whole entry): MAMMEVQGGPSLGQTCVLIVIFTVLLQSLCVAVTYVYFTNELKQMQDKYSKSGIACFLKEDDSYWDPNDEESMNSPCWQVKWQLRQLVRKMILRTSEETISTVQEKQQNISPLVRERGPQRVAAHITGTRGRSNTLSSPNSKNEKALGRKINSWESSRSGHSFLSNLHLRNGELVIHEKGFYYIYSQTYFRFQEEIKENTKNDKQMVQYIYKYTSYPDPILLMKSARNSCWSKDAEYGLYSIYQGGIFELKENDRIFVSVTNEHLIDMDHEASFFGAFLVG

In the case of OPG (from UniProt O00300), the Kd (TRAIL (Homo sapiens)) is given as 45 nM and the Kd (RANKL (Homo sapiens)) is given as 23 nM.
